This is an account of results in PMC3377380.

The target of this test is GST-Obsc_(6316–6345) (Rattus norvegicus). In words: SPR.

The substance “sAnk1-I102F (MBP fusion) (domain or fragment)” registered a fold slower dissociation than wild type of 3 times.
